# B1: Ligand of Numb protein X 2 (Homo sapiens), Q8N448 (parent)
# chain: MGTTSDEMVSVEQTSSSSLNPLCFECGQQHWTRENHLYNYQNEVDDDLVCHICLQPLLQPLDTPCGHTFCYKCLRNFLQEKDFCPLDRKRLHFKLCKKSSILVHKLLDKLLVLCPFSSVCKDVMQRCDLEAHLKNRCPGASHRRVALERRKTSRTQAEIENENGPTLLDPAGTLSPEADCLGTGAVPVERHLTSASLSTWSEEPGLDNPAFEESAGADTTQQPLSLPEGEITTIEIHRSNPYIQLGISIVGGNETPLINIVIQEVYRDGVIARDGRLLAGDQILQVNNYNISNVSHNYARAVLSQPCNTLHLTVLRERRFGNRAHNHSDSNSPREEIFQVALHKRDSGEQLGIKLVRRTDEPGVFILDLLEGGLAAQDGRLSSNDRVLAINGHDLKYGTPELAAQIIQASGERVNLTIARPGKPQPGNTIREAGNHSSSSQHHTPPPYYSRPSSHKDLTQCVTCQEKHITVKKEPHESLGMTVAGGRGSKSGELPIFVTSVPPHGCLARDGRIKRGDVLLNINGIDLTNLSHSEAVAMLKASAASPAVALKALEVQIVEEATQNAEEQPSTFSENEYDASWSPSWVMWLGLPSTLHSCHDIVLRRSYLGSWGFSIVGGYEENHTNQPFFIKTIVLGTPAYYDGRLKCGDMIVAVNGLSTVGMSHSALVPMLKEQRNKVTLTVICWPGSLV
# B2: Nuclear protein AMMECR1 (Homo sapiens), Q9Y4X0 (parent)
# chain: MAAGCCGVKKQKLSSSPPSGSGGGGGASSSSHCSGESQCRAGELGLGGAGTRLNGLGGLTGGGSGSGCTLSPPQGCGGGGGGIALSPPPSCGVGTLLSTPAAATSSSPSSSSAASSSSPGSRKMVVSAEMCCFCFDVLYCHLYGYQQPRTPRFTNEPYPLFVTWKIGRDKRLRGCIGTFSAMNLHSGLREYTLTSALKDSRFPPMTRDELPRLFCSVSLLTNFEDVCDYLDWEVGVHGIRIEFINEKGSKRTATYLPEVAKEQGWDHIQTIDSLLRKGGYKAPITNEFRKTIKLTRYRSEKMTLSYAEYLAHRQHHHFQNGIGHPLPPYNHYS
# B3: NAD kinase (Homo sapiens), O95544 (parent)
# chain: MEMEQEKMTMNKELSPDAAAYCCSACHGDETWSYNHPIRGRAKSRSLSASPALGSTKEFRRTRSLHGPCPVTTFGPKACVLQNPQTIMHIQDPASQRLTWNKSPKSVLVIKKMRDASLLQPFKELCTHLMEENMIVYVEKKVLEDPAIASDESFGAVKKKFCTFREDYDDISNQIDFIICLGGDGTLLYASSLFQGSVPPVMAFHLGSLGFLTPFSFENFQSQVTQVIEGNAAVVLRSRLKVRVVKELRGKKTAVHNGLGENGSQAAGLDMDVGKQAMQYQVLNEVVIDRGPSSYLSNVDVYLDGHLITTVQGDGVIVSTPTGSTAYAAAAGASMIHPNVPAIMITPICPHSLSFRPIVVPAGVELKIMLSPEARNTAWVSFDGRKRQEIRHGDSISITTSCYPLPSICVRDPVSDWFESLAQCLHWNVRKKQAHFEEEEEEEEEG
# partner: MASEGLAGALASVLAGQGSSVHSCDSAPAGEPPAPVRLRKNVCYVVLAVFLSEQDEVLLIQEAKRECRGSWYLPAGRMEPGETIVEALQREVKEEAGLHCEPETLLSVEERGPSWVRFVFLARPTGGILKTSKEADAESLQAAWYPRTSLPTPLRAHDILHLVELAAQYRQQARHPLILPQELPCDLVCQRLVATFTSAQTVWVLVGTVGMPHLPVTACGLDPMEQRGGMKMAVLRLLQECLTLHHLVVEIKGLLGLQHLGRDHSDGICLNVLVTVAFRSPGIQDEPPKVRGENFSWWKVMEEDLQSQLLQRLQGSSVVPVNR
# Variants of: B1
# Details: with tbb5_human TUBB
row,Variant,effect of a mutation on the interaction
1,T183I,with no effect

# Variants of: B1
# Details: with mk09_human MAPK9, P45984
row,Variant,effect of a mutation on the interaction
1,T183I,with no effect

# Variants of: B1
# Details: with at2l2_human PHYKPL
row,Variant,effect of a mutation on the interaction
1,T183I,with no effect

# Variants of: B1
# Details: with ip6k2_human IP6K2, Q9UHH9
row,Variant,effect of a mutation on the interaction
1,T183I,with no effect

# Variants of: B1
# Details: with optn_human OPTN
row,Variant,effect of a mutation on the interaction
1,T183I,with no effect

# Variants of: B2
# Details: with rbpms_human RBPMS
row,Variant,effect of a mutation on the interaction
1,R207G,with no effect

# Variants of: B3
# Details: with nud18_human NUDT18, Q6ZVK8
row,Variant,effect of a mutation on the interaction
1,MEMEQEKMTMNKELSPDAAAYCCSACHGDETWSYNHPIRGRAKSRSLSASPALGSTKEFRRTRSLHGPCPVTTFGPKACVLQNPQTIMHIQDPASQRLTWNKSPKSVLVIKKMRDASLLQPFKELCTHLMEENMIVYVEKKVLEDPAIASDESFGAVKKKFCTFREDYDDISNQIDFIICLGGDGTLLYASSLFQGSVPPVMAFHLGSLGFLTPFSFENFQSQVTQVIEGNAAVVLRSRLKVRVVKELWGKKTAVHNGLGENGSQAAGLDMDVGKQAMQYQVLNEVVIDRGPSSYLSNVDVYLDGHLITTVQGDGVIVSTPTGSTAYAAAAGASMIHPNVPAIMITPICPHSLSFRPIVVPAGVELKIMLSPEARNTAWVSFDGRKRQEIRHGDSISITTSCYPLPSICVRDPVSDWFESLAQCLHWNVRKKQAHFEEEEEEEEEG [R249W],with no effect

# Reference: IntAct's records for PubMed 31515488
